Biological target: Recombinant Human HER2 ECD (human) (UniProt P04626)
Assay: SPR

Q: How did the Kd turn out when ABY-025 (designed binder) was run?
A: 0.107 nM
